The values that follow come from patent US12385058B2, “Herbicide tolerance protein, encoding gene thereof and use thereof” (Beijing Dabeinong Biotechnology Co., Ltd., priority 2018, dated 2025).

B1: ALT02M1-02: nucleotide sequence SEQ ID NO: 26 encoding ALT02M1, based on maize codon usage bias (nucleic acid)
DNA: ATGGAGACTGATAACGTGGAGCTGGCGCAGAGCAAGAGGAAGGTGGTTCTGGCTGAGCAGGGGTCGTTCTACATTGGGGGGCGGACTGTGACCGGGCCCGGCAAGTTCGACCCATCGAAGCCTGTCATTCCGTACTCTAACGAGGGCGCTACGTTCTACATCAACCAGATGTACGTGAATTTCCAGGCTCCCGTCCGCCCAAGGGGCCTCCCACTGGTGTTCTGGCACGGCGGGGGCCTGACAGGCCATATCTGGGAGTCCACTCCAGATGGCCGCCCAGGGTTCCAGACACTCTTCGTTCAGGACAGGCACACAGTGTACACTATTGATCAGCCAGGGAGGGGCAGGGGGAACATCCCTACCTTCAATGGCCCATTCGGGCAGCTGGAGGAGGAGTCCATCGTGAACACCGTCACGGCGAATTCCAGCAAGGAGGGGGCTTGGGTCAGGGACCGGCTCGGCCCGGCCCCAGGGCAGTTCTTCGAGAACTCTCAGTTCCCCCGGGGCTACGAGGATAATTACTTCAAGGAGATGGGCTTCTCACCATCCATCTCGTCTGACGAGATTGTCGATGCCGTGGTCAAGCTCGTTACCCACATCGGCCCTTGCGTTCTGGTGACGCATAGCGCTTCGGGCGTCCTCGGGATGAGGGTTGCTACACATGCGAAGAACGTTCGCGGCATCGTGGCTTACGAGCCGGCCACTTCCATTTTCCCCAAGGGCAAGGTGCCAGAGATCCCACCACTGGCCGACAAGAAGTCACAGATCTTCCCACCTTTCGAGATTCAGGAGTCCTACTTCAAGAAGCTCGCTAAGATCCCCATTCAGTTCGTGTTCGGCGACAACATTCCTAAGAATCCGAAGAGCGCGTACTGGTTCCTGGATTGGTGGCGCGTCACGCGCTACGCGCACTCTCTCTCACTGGAGGCTATCAACAAGCTCGGGGGCCAGGCCTCGCTCCTGGACCTCCCTACCGCTGGCCTGAGGGGGAACACCCATTTCCCGTTCACGGATCGGAACAATGTCCAGGTTGCGTCCCTCCTGAGCGATTTCCTCGGCAAGCACGGGCTGGATCAGAATGAGTCTAAGCTCGCTGCGGCGCTGGAGTGA
modifications: the ALT02M1-02 nucleotide sequence encoding the amino acid sequence corresponding to the herbicide tolerant protein ALT02M1 and based on the maize codon usage bias
B2: ALT02M2-02: nucleotide sequence SEQ ID NO: 30 encoding ALT02M2, based on maize codon usage bias (nucleic acid)
DNA: ATGGAGACTGATAACGTGGAGCTGGCGCAGAGCAAGAGGAAGGTGGTTCTGGCTGAGCAGGGGTCGTTCTACATTGGGGGGCGGACTGTGACCGGGCCCGGCAAGTTCGACCCATCGAAGCCTGTCATTCCGTACTCTAACGAGGGCGCTACGTTCTACATCAACCAGATGTACGTGAATTTCCAGGCTCCCGTCCGCCCAAGGGGCCTCCCACTGGTGTTCTGGCACGGCGGGGGCCTGACAGGCCATATCTGGGAGTCCACTCCAGATGGCCGCCCAGGGTTCCAGACACTCTTCGTTCAGGACAGGCACACAGTGTACACTATTGATCAGCCAGGGAGGGGCAGGGGGAACATCCCTACCTTCAATGGCCCATTCGGGCAGCTGGAGGAGGAGTCCATCGTGAACACCGTCACGGGCAATGTGAGCAAGGAGGGGGCTTGGGTCAGGGACCGGCTCGGCCCGGCCCCAGGGCAGTTCTTCGAGAACTCTCAGTTCCCCCGGGGCTACGAGGATAATTACTTCAAGGAGATGGGCTTCTCACCATCCATCTCGTCTGACGAGATTGTCGATGCCGTGGTCAAGCTCGTTACCCACATCGGCCCTTGCGTTCTGGTGACGCATAGCGCTTCGGGCGTCCTCGGGATGAGGGTTGCTACACATGCGAAGAACGTTCGCGGCATCGTGGCTTACGAGCCGGCCACTTCCATTTTCCCCAAGGGCAAGGTGCCAGAGATCCCACCACTGGCCGACAAGAAGTCACAGATCTTCCCACCTTTCGAGATTCAGGAGTCCTACTTCAAGAAGCTCGCTAAGATCCCCATTCAGTTCGTGTTCGGCGACAACATTCCTAAGAATCCGAAGAGCGCGTACTGGTTCCTGGATTGGTGGCGCGTCACGCGCTACGCGCACTCTCTCTCACTGGAGGCTATCAACAAGCTCGGGGGCCAGGCCTCGCTCCTGGACCTCCCTACCGCTGGCCTGAGGGGGAACACCCATTTCCCGTTCACGGATCGGAACAATGTCCAGGTTGCGTCCCTCCTGAGCGATTTCCTCGGCAAGCACGGGCTGGATCAGAATGAGTCTAAGCTCGCTGCGGCGCTGGAGTGA
modifications: the ALT02M2-02 nucleotide sequence encoding the amino acid sequence corresponding to the herbicide tolerant protein ALT02M2 and based on the maize codon usage bias
B3: ALT02M3-02: nucleotide sequence SEQ ID NO: 34 encoding ALT02M3, based on maize codon usage bias (nucleic acid)
DNA: ATGGAGACTGATAACGTGGAGCTGGCGCAGAGCAAGAGGAAGGTGGTTCTGGCTGAGCAGGGGTCGTTCTACATTGGGGGGCGGACTGTGACCGGGCCCGGCAAGTTCGACCCATCGAAGCCTGTCATTCGGGCGTCTAACGAGGGCGCTACGTTCTACATCAACCAGATGTACGTGAATTTCCAGGCTCCCGTCCGCCCAAGGGGCCTCCCACTGGTGTTCTGGCACGGCGGGGGCCTGACAGGCCATATCTGGGAGTCCACTCCAGATGGCCGCCCAGGGTTCCAGACACTCTTCGTTCAGGACAGGCACACAGTGTACACTATTGATCAGCCAGGGAGGGGCAGGGGGAACATCCCTACCTTCAATGGCCCATTCGGGCAGCTGGAGGAGGAGTCCATCGTGAACACCGTCACGGCGAATGTGAGCAAGGAGCGGGCTTGGGTCAGGGACCGGCTCGGCCCGGCCCCAGGGCAGTTCTTCGAGAACTCTCAGTTCCCCCGGGGCTACGAGGATAATTACTTCAAGGAGATGGGCTTCTCACCATCCATCTCGTCTGACGAGATTGTCGATGCCGTGGTCAAGCTCGTTACCCACATCGGCCCTTGCGTTCTGGTGACGCATAGCGCTTCGGGCGTCCTCGGGATGAGGGTTGCTACACATGCGAAGAACGTTCGCGGCATCGTGGCTTACGAGCCGGCCACTTCCATTTTCCCCAAGGGCAAGGTGCCAGAGATCCCACCACTGGCCGACAAGAAGTCACAGATCTTCCCACCTTTCGAGATTCAGGAGTCCTACTTCAAGAAGCTCGCTAAGATCCCCATTCAGTTCGTGTTCGGCGACAACATTCCTAAGAATCCGAAGAGCGCGTACTGGTTCCTGGATTGGTGGCGCGTCACGCGCTACGCGCACTCTCTCTCACTGGAGGCTATCAACAAGCTCGGGGGCCAGGCCTCGCTCCTGGACCTCCCTACCGCTGGCCTGAGGGGGAACACCCATTTCCCGTTCACGGATCGGAACAATGTCCAGGTTGCGTCCCTCCTGAGCGATTTCCTCGGCAAGCACGGGCTGGATCAGAATGAGTCTAAGCTCGCTGCGGCGCTGGAGTGA
modifications: the ALT02M3-02 nucleotide sequence encoding the amino acid sequence corresponding to the herbicide tolerant protein ALT02M3 and based on the maize codon usage bias

The test system of this data set is maize plants. Briefly: Herbicide tolerance of transgenic maize T1 plants (spraying, damage degree). The data set is classed as in vivo. Particulars: sprayed with tribenuron-methyl 144 g ai/ha, eight-fold field concentration. How it is done: The degree of damage caused by the herbicide was measured for each plant according to the plant growth status 3 days after spraying (3 DAT), 7 days after spraying (7 DAT), 14 days after spraying (14 DAT) and 21 days after spraying (21 DAT): a growth status equivalent to that of the untreated plants is defined as having a damage degree of 0%; the case where leaves are locally chlorotic and yellow but the normal plant growth is substantially not affected is defined as having a damage degree of 50%; and the case where the whole plant is purple and dying is defined as having a damage degree of 100%. The maize plants into which the ALT02M1-02 nucleotide sequence was introduced were of three strains in total (S15, S16 and S17), the maize plants into which the ALT02M2-02 nucleotide sequence was introduced were of three strains in total (S18, S19 and S20), the maize plants into which the ALT02M3-02 nucleotide sequence was introduced were of three strains in total (S21, S22 and S23), the maize plants into which the ALT02-02 nucleotide sequence was introduced were of three strains in total (S24, S25 and S26), the control maize plants were of two strains in total (S27 and S28), and the wild-type maize plants were of one strain in total (CK2); and 10-15 plants were selected from each strain and tested.
In the case of B1, the “herbicide tolerance compared with maize plants into which ALT02-02 was introduced” value is “significantly increased tolerance to benzenesulfonic acid” and the “herbicide tolerance imparted to transgenic maize plants” value is “impart transgenic maize plants with the tolerance to benzenesulfonic acid”.
For B2, in that order: “significantly increased tolerance to benzenesulfonic acid” and “impart transgenic maize plants with the tolerance to benzenesulfonic acid”.
For B3, in that order: “significantly increased tolerance to benzenesulfonic acid” and “impart transgenic maize plants with the tolerance to benzenesulfonic acid”.
